Results: patent US9051358B2, “Nonnatural collagen-like protein and use thereof” (ZHEJIANG UNIVERSITY, priority 2009, dated 2015)

B1: rGLK1164/G-CSF: fusion protein of GLK1164 and hG-CSF (SEQ ID NO: 6) (protein)
chain: GPPGEQGKPGNQGEPGNPGSPGQPGNPGQPGSPGNPGQPGNEGPQGSQGNPGQPGEPGSNGQPGQPGQNGKNGQPGSPGSQGSPGNQGSPGNQGQPGNKGEQGKPGNQGPAGEQGKPGNQGEPGNPGSPGQPGNPGQPGSPGNPGQPGNEGPQGSQGNPGQPGEPGSNGQPGQPGQNGKNGQPGSPGSQGSPGNQGSPGNQGQPGNKGEQGKPGNQGPAGEQGKPGNQGEPGNPGSPGQPGNPGQPGSPGNPGQPGNEGPQGSQGNPGQPGEPGSNGQPGQPGQNGKNGQPGSPGSQGSPGNQGSPGNQGQPGNKGEQGKPGNQGPAGEQGKPGNQGEPGNPGSPGQPGNPGQPGSPGNPGQPGNEGPQGSQGNPGQPGEPGSNGQPGQPGQNGKNGQPGSPGSQGSPGNQGSPGNQGQPGNKGEQGKPGNQGPAGGSGGTPLGPASSLPQSFLLKCLEQVRKIQGDGAALQEKLCATYKLCHPEELVLLGHSLGIPWAPLSSCPSQALQLAGCLSQLHSGLFLYQGLLQALEGISPELGPTLDTLQLDVADFATTIWQQMEELGMAPALQPTQGAMPAFASAFQRRAGGVLVASHLQSFLEVSYRVLRHLAQP
modifications: rGLK116 tetramer/G-CSF
B2: rhG-CSF: rhG-CSF (Filgrastim, Amgen, USA) (protein, UniProt P09919 31-207, looked up)
Granulocyte …: TPLGPASSLPQSFLLKCLEQVRKIQGDGAALQEKLVSECATYKLCHPEELVLLGHSLGIPWAPLSSCPSQALQLAGCLSQLHSGLFLYQGLLQALEGISPELGPTLDTLQLDVADFATTIWQQMEELGMAPALQPTQGAMPAFASAFQRRAGGVLVASHLQSFLEVSYRVLRHLAQP
modifications: filgrastim, N-terminal Met
B3: rGLK420/G-CSF: fusion protein of GLK420 and G-CSF (SEQ ID NO: 10) (protein)
chain: GPPGEDGDKGEIGEPGQKGSKGDKGEQGPPGPTGPQGPIGQPGPSGADGEPGPRGQQGLFGQKGDEGPRGFPGPPGPVGLQGLPGPPGEKGETGDVGQMGPPGPPGPRGPSGAPGADGPQGPPGGIGNPGAVGEKGEPGEAGEPGLPGEGGPPGPKGERGEKGESGPSGAAGPPGPKGPPGDDGPKGSPGPVGFPGDPGPPGEPGPAGQDGPPGDKGDDGEPGQTGSPGPTGEPGPSGPPGKRGPPGPAGPEGRQGEKGAKGEAGLEGPPGKTGPIGPQGAPGKPGPDGLRGIPGPVGEQGLPGSPGPDGPPGPMGPPGLPGLKGDSGPKGEKGHPGLIGLIGPPGEQGEKGDRGLPGPQGSSGPKGEQGITGPSGPIGPPGPPGLPGPPGPKGAKGSSGPTGPKGEAGHPGPPGPPGPPTPLGPASSLPQSFLLKCLEQVRKIQGDGAALQEKLCATYKLCHPEELVLLGHSLGIPWAPLSSCPSQALQLAGCLSQLHSGLFLYQGLLQALEGISPELGPTLDTLQLDVADFATTIWQQMEELGMAPALQPTQGAMPAFASAFQRRAGGVLVASHLQSFLEVSYRVLRHLAQP
modifications: GLK420/G-CSF, fusion protein

Tests used:
[1] = test system: G-CSF-dependent cell line NFS60; assay: In vitro bioactivity in G-CSF-dependent cell line NFS60 by MTT assay; type: cell-based; details: for Bioactivity (IU/mg): Table 4; for Relative activity (in molar basis)(%): relative to G-CSF
Description: In vitro bioactivity of the rGLK1164/G-CSF fusion protein was measured in G-CSF-dependent cell line NFS60 by MTT assay (Chinese Pharmacopoeia, 2005 edition, three sections).

[2] = In vitro stability, shock at 40° C., SEC-HPLC analysis; type: physicochemical; details: for Purity (%) (SEC-HPLC analysis): 1 mg/ml in 20 mM PB pH6.0, 40° C.; for protein content after incubation (%): 40° C.; for in vitro stability (aggregates, total protein content): shock 48 hours at 40° C.
Description: Reference rhG-CSF and rGLK1164/G-CSF were dissolved in 20 mM PB, pH6.0 to the protein concentration of 1 mg/ml. samples were sterile filtered and distributed to penicillin bottles. […]

[3] = Immunogenicity study in mice, serum antibody detection by ELISA; type: in vivo, Balc/C mice; details: sc once a week, 2.5 nmol
Description: Balc/C mice (n=12) with a average weight of about 25 g were evenly divided into 4 groups. 2.5 nmol rGLK1164, 2.5 nmol rGLK1164/G-CSF, and the same volume of saline were administered to a corresponding group respectively by subcutaneous injection once a week. Serum samples were collected in week 4 and week 9(a week after the eighth immunization) and were saved separately at −70° C.
rGLK1164 or G-CSF was diluted with 0.2M carbonate buffer (pH9.6) to 1 μg/ml. Each well of the ELISA microplate was filled with 100 μl dilution and coated overnight at 4° C., and then the wells were washed with PBST for 3 times(5 minutes each time). The washed wells were sealed by 5% nonfat dry milk for 1 hour, and then washed three times with PBST (5 minutes each time). The preserved serum of each group was added to the well at a rate of 1:50,1:200,1:800, and then the microplate was incubated at 37° C. for 1 hour, and for one increased hour after the secondary antibody, HRP-conjugated goat anti-mouse antibody was added. After the microplate was shook to dry and washed by PBST, it was colored with TMB-HCL and detected under the illumination of 450 nm. Meanwhile, 200 ng/ml of rabbit anti-human G-CSF antibody was used as a positive control.

[4] = test system: white blood cells; assay: Pharmacodynamic study, number of white blood cells in SD rats; type: in vivo
Excerpt: (§1) The pharmacokinetic parameters and pharmacodynamic properties of rhG-CSF (Filgrastim, Amgen, USA), rHSA/G-CSF (prepared according to U.S. Pat. No. 5,876,969), rGLK1164/G-CSF and rGLK1164 in SD rats were compared.
(§2) Adult SPF SD rats (approximately 300-350 g) from the Center of Experimental Animals of Chinese Academy of Sciences in Shanghai were divided into 8 groups and administered according to Table 3. Blood samples were collected from the caudal veins of rats. The number of white blood cells were counted, and serum was saved at −20° C. after separated by centrifugation (3000rpm for 5 minutes).

[5] = Pharmacokinetics of G-CSF proteins in SD rats (ELISA); type: in vivo; details: for Half-life: SD rats; for detectability in blood after subcutaneous injection: blood concentration-time curve
Excerpt: as §1, §2
The plasma concentration detection of rhG-CSF, rGLK1164/G-CSF and rHSA/G-CSF was carried out using ELISA (for the specific operations, refer to the operating manual of Human G-CSF DuoSet kit Human G-CSF ELISA Construction Kit (ANTIGENIX)). The MicroCal Origin software was used to draw standard curve according to four-parameter logistic fitting method, and calculate related statistical parameters by regression analysis. The 3P87 software was used to calculate the PK parameters.
GLK/G-CSFs with different structures were prepared in a similar way, and their activity, half-life in SD rats and other relevant parameters were compared.

Molecule | in vitro activity [1] | Bioactivity (IU/mg) [1] | Relative activity (in molar basis)(%) [1] [%] | Purity (%) (SEC-HPLC analysis) ([2]; 0 h) | protein content after incubation (%) ([2]; 0 h) | Purity (%) (SEC-HPLC analysis) ([2]; 24 h) | protein content after incubation (%) ([2]; 24 h) | Purity (%) (SEC-HPLC analysis) ([2]; 48 h) | protein content after incubation (%) ([2]; 48 h) | in vitro stability (aggregates, total protein content) [2] | serum anti-G-CSF antibody ([3]; plate coated by G-CSF) | serum anti-rGLK1164 antibody ([3]; plate coated by rGLK1164) | number of white blood cells ([4]; 48 hours after an injection) | extent and duration of white blood cell increase versus rHSA/G-CSF ([4]; same dosage) | Half-life [5] [h] | terminal half-life ([5]; administered subcutaneously in rats) [h] | detectability in blood after subcutaneous injection [5]
B1 | about 3.3×10^7 IU/mg | 0.33 × 10^8 IU/mg | 146 | 99.5 | 100 | 98.7 | 97.8 | 97.5 | 96.7 | changed little | anti-G-CSF antibody is produced | no anti-rGLK1164 antibody produced | increased significantly | no significant difference | >7 | 10 | could still be detected at 72 hours
B2 |  | 0.7 × 10^8 IU/mg | 100 | 99.8 | 100 | 94.3 | 91.2 | 85.2 | 68.9 | a large number of polymeric aggregates were formed and the total protein content was also decreased significantly |  |  |  |  | 1.7 |  | couldn't be detected 24 hours later
B3 |  | 0.28 × 10^8 IU/mg | 129 |  |  |  |  |  |  |  |  |  |  |  | >7 |  | 
